According to article PMC11677236, “TIPE drives a cancer stem-like phenotype by promoting glycolysis via PKM2/HIF-1α axis in melanoma” (eLife, 2024):

Molecular target: T1, GST-tagged PKM2 (UniProt P14618 1-531)
T1 construct: Pyruvate kinase isoform M2 (PKM2); also called GST-PKM2; source: purified
Assay: pull-down; GST-pull down in vitro using purified GST-tagged PKM2 and TIPE-HA
Details: both partners purified

T1 sequence (P14618 whole entry, canonical isoform): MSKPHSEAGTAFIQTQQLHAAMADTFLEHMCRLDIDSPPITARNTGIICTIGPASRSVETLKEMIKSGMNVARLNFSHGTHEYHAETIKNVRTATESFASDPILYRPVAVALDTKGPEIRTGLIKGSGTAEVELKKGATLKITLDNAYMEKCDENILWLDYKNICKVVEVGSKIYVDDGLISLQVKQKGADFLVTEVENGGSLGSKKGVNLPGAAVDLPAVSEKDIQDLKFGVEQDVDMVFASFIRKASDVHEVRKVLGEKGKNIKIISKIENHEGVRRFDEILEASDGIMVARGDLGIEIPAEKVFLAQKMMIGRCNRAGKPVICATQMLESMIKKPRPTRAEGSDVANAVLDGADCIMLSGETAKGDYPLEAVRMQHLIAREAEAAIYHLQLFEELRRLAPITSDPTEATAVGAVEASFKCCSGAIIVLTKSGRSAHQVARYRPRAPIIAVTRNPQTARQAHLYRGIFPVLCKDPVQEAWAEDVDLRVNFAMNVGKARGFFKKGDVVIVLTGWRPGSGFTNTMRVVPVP

B1: TIPE-HA used in the GST-pull down assay (natural protein, UniProt O95379 1-198, looked up)
chain: MHSEAEESKEVATDVFNSKNLAVQAQKKILGKMVSKSIATTLIDDTSSEVLDELYRVTREYTQNKKEAEKIIKNLIKTVIKLAILYRNNQFNQDELALMEKFKKKVHQLAMTVVSFHQVDYTFDRNVLSRLLNECREMLHQIIQRHLTAKSHGRVNNVFDHFSDCEFLAALYNPFGNFKPHLQKLCDGINKMLDEENI
notes: TIPE (TNFAIP8); The legend says 'using purified GST-tagged PKM2 and TIPE-HA'; It may be the same construct as m3
binding result: binds
